Like-named read-outs stand apart in the source and are kept apart here.
Experiments:
[1] = target: T1, HCV proteins (Hepatitis C virus genotype 1b, UniProt Q9WMX2); assay: Validation by Y2H pairwise matrices; type: binding;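 also: yeast two-hybrid pairwise tests of interactions first found in Y2H screens of HCV bait proteins against human cDNA libraries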
T1 construct: expressed in transfected cells

[2] = target: T2, HCV ORFs (Gal4-DB fusions) (Hepatitis C virus genotype 1b, UniProt Q9WMX2); type: binding, HCV genotype 1b, isolate con1; conditions: human protein as prey
T2 construct: expressed in transfected cells; host or cells: Saccharomyces cerevisiae MAV203 (IMAP1) / AH109 (IMAP2)

[3] = system: HCV ORFs (Gal4-DB fusions); type: binding, HCV genotype 1b, isolate con1; conditions: human protein listed by gene symbol; the value names the HCV protein it interacts with
[4] = validation of interaction with HCV protein NS3
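For IMAP Y2H IMAP1 (number of IST) in this document: yeast two-hybrid screens using HCV genotype 1b proteins fused to Gal4-DB as baits against prey cDNA libraries from human spleen and foetal brain, IMAP1 via transformation and IMAP2 via mating.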
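For IMAP Y2H IMAP2 (number of IST) in this document: yeast two-hybrid screens using HCV genotype 1b proteins fused to Gal4-DB as baits against prey cDNA libraries from human spleen and foetal brain, IMAP1 via transformation and IMAP2 via mating.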
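For Interaction with viral protein in this document: yeast two-hybrid screens using HCV genotype 1b proteins fused to Gal4-DB as baits against prey cDNA libraries from human spleen and foetal brain, IMAP1 via transformation and IMAP2 via mating.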

B1: L3MBTL3 (protein, UniProt Q96JM7 1-780, looked up)
Lethal(3)malignant brain …: MTESASSTSGQEFDVFSVMDWKDGVGTLPGSDLKFRVNEFGALEVITDENEMENVKKATATTTWMVPTAQEAPTSPPSSRPVFPPAYWTSPPGCPTVFSEKTGMPFRLKDPVKVEGLQFCENCCQYGNVDECLSGGNYCSQNCARHIKDKDQKEERDVEEDNEEEDPKCSRKKKPKLSLKADTKEDGEERDDEMENKQDVRILRGSQRARRKRRGDSAVLKQGLPPKGKKAWCWASYLEEEKAVAVPAKLFKEHQSFPYNKNGFKVGMKLEGVDPEHQSVYCVLTVAEVCGYRIKLHFDGYSDCYDFWVNADALDIHPVGWCEKTGHKLHPPKGYKEEEFNWQTYLKTCKAQAAPKSLFENQNITVIPSGFRVGMKLEAVDKKNPSFICVATVTDMVDNRFLVHFDNWDESYDYWCEASSPHIHPVGWCKEHRRTLITPPGYPNVKHFSWDKYLEETNSLPAPARAFKVKPPHGFQKKMKLEVVDKRNPMFIRVATVADTDDHRVKVHFDGWNNCYDYWIDADSPDIHPVGWCSKTGHPLQPPLSPLELMEASEHGGCSTPGCKGIGHFKRARHLGPHSAANCPYSEINLNKDRIFPDRLSGEMPPASPSFPRNKRTDANESSSSPEIRDQHADDVKEDFEERTESEMRTSHEARGAREEPTVQQAQRRSAVFLSFKSPIPCLPLRWEQQSKLLPTVAGIPASKVSKWSTDEVSEFIQSLPGCEEHGKVFKDEQIDGEAFLLMTQTDIVKIMSIKLGPALKIFNSILMFKAAEKNSHNEL
B1 was tested, and the Y2H matrices [1, 4] was “+”, the “IMAP Y2H IMAP1 (number of IST)” value ([2]; HCV protein NS3 as bait) was 4 and the “IMAP Y2H IMAP2 (number of IST)” value ([2]; HCV protein NS3 as bait) was 8. The “Interaction with viral protein” value [3] was “NS3”.

B2: LDB1 (protein, UniProt Q86U70 2-411, looked up)
LIM domain-binding protein 1: SVGCACPGCSSKSFKLYSPKEPPNGNAFPPFHPGTMLDRDVGPTPMYPPTYLEPGIGRHTPYGNQTDYRIFELNKRLQNWTEECDNLWWDAFTTEFFEDDAMLTITFCLEDGPKRYTIGRTLIPRYFRSIFEGGATELYYVLKHPKEAFHSNFVSLDCDQGSMVTQHGKPMFTQVCVEGRLYLEFMFDDMMRIKTWHFSIRQHRELIPRSILAMHAQDPQMLDQLSKNITRCGLSNSTLNYLRLCVILEPMQELMSRHKTYSLSPRDCLKTCLFQKWQRMVAPPAEPTRQQPSKRRKRKMSGGSTMSSGGGNTNNSNSKKKSPASTFALSSQVPDVMVVGEPTLMGGEFGDEDERLITRLENTQFDAANGIDDEDSFNNSPALGANSPWNSKPPSSQESKSENPTSQASQ
In the case of B2, the Y2H matrices [1, 4] is reported as “+”, the “IMAP Y2H IMAP1 (number of IST)” value ([2]; HCV protein NS3 as bait) is reported as 1 and the “Interaction with viral protein” value [3] is reported as “NS3”.

B3: KIF17 (protein, UniProt Q9P2E2 1-1029, looked up)
Kinesin-like protein KIF17: MASEAVKVVVRCRPMNQRERELRCQPVVTVDCARAQCCIQNPGAADEPPKQFTFDGAYHVDHVTEQIYNEIAYPLVEGVTEGYNGTIFAYGQTGSGKSFTMQGLPDPPSQRGIIPRAFEHVFESVQCAENTKFLVRASYLEIYNEDVRDLLGADTKQKLELKEHPEKGVYVKGLSMHTVHSVAQCEHIMETGWKNRSVGYTLMNKDSSRSHSIFTISIEMSAVDERGKDHLRAGKLNLVDLAGSERQSKTGATGERLKEATKINLSLSALGNVISALVDGRCKHVPYRDSKLTRLLQDSLGGNTKTLMVACLSPADNNYDETLSTLRYANRAKNIRNKPRINEDPKDALLREYQEEIKKLKAILTQQMSPSSLSALLSRQVPPDPVQVEEKLLPQPVIQHDVEAEKQLIREEYEERLARLKADYKAEQESRARLEEDITAMRNSYDVRLSTLEENLRKETEAVLQVGVLYKAEVMSRAEFASSAEYPPAFQYETVVKPKVFSTTDTLPSDDVSKTQVSSRFAELPKVEPSKSEISLGSSESSSLEETSVSEAFPGPEEPSNVEVSMPTEESRSRYFLDECLGQEAAGHLLGEQNYLPQEEPQEVPLQGLLGLQDPFAEVEAKLARLSSTVARTDAPQADVPKVPVQVPAPTDLLEPSDARPEAEAADDFPPRPEVDLASEVALEVVRTAEPGVWLEAQAPVALVAQPEPLPATAGVKRESVGMEVAVLTDDPLPVVDQQQVLARLQLLEQQVVGGEQAKNKDLKEKHKRRKRYADERRKQLVAALQNSDEDSGDWVLLNVYDSIQEEVRAKSKLLEKMQRKLRAAEVEIKDLQSEFQLEKIDYLATIRRQERDSMLLQQLLEQVQPLIRRDCNYSNLEKILRESCWDEDNGFWKIPHPVITKTSLPVAVSTGPQNKPARKTSAADNGEPNMEDDRYRLMLSRSNSENIASNYFRSKRASQILSTDARKSLTHHNSPPGLSCPLSNNSAIPPTQAPEMPQPRPFRLESLDIPFTKAKRKKSKSNFGSEPL
B3 was tested, and the Y2H matrices [1, 4] was “+”, the “IMAP Y2H IMAP1 (number of IST)” value ([2]; HCV protein NS3 as bait) was 2 and the “Interaction with viral protein” value [3] was “NS3”.

B4: IQWD1 (protein, UniProt Q58WW2 1-860, looked up)
DDB1- and CUL4-associated …: MSRGGSYPHLLWDVRKRSLGLEDPSRLRSRYLGRREFIQRLKLEATLNVHDGCVNTICWNDTGEYILSGSDDTKLVISNPYSRKVLTTIRSGHRANIFSAKFLPCTNDKQIVSCSGDGVIFYTNVEQDAETNRQCQFTCHYGTTYEIMTVPNDPYTFLSCGEDGTVRWFDTRIKTSCTKEDCKDDILINCRRAATSVAICPPIPYYLAVGCSDSSVRIYDRRMLGTRATGNYAGRGTTGMVARFIPSHLNNKSCRVTSLCYSEDGQEILVSYSSDYIYLFDPKDDTARELKTPSAEERREELRQPPVKRLRLRGDWSDTGPRARPESERERDGEQSPNVSLMQRMSDMLSRWFEEASEVAQSNRGRGRSRPRGGTSQSDISTLPTVPSSPDLEVSETAMEVDTPAEQFLQPSTSSTMSAQAHSTSSPTESPHSTPLLSSPDSEQRQSVEASGHHTHHQSDNNNEKLSPKPGTGEPVLSLHYSTEGTTTSTIKLNFTDEWSSIASSSRGIGSHCKSEGQEESFVPQSSVQPPEGDSETKAPEESSEDVTKYQEGVSAENPVENHINITQSDKFTAKPLDSNSGERNDLNLDRSCGVPEESASSEKAKEPETSDQTSTESATNENNTNPEPQFQTEATGPSAHEETSTRDSALQDTDDSDDDPVLIPGARYRAGPGDRRSAVARIQEFFRRRKERKEMEELDTLNIRRPLVKMVYKGHRNSRTMIKEANFWGANFVMSGSDCGHIFIWDRHTAEHLMLLEADNHVVNCLQPHPFDPILASSGIDYDIKIWSPLEESRIFNRKLADEVITRNELMLEETRNTITVPASFMLRMLASLNHIRADRLEGDRSEGSGQENENEDEE
B4 was tested, and the Y2H matrices [1, 4] was “+”, the “IMAP Y2H IMAP1 (number of IST)” value ([2]; HCV protein NS3 as bait) was 2 and the “Interaction with viral protein” value [3] was “NS3”.

B5: LPXN (protein, UniProt O60711 1-386, looked up)
Leupaxin: MEELDALLEELERSTLQDSDEYSNPAPLPLDQHSRKETNLDETSEILSIQDNTSPLPAQLVYTTNIQELNVYSEAQEPKESPPPSKTSAAAQLDELMAHLTEMQAKVAVRADAGKKHLPDKQDHKASLDSMLGGLEQELQDLGIATVPKGHCASCQKPIAGKVIHALGQSWHPEHFVCTHCKEEIGSSPFFERSGLAYCPNDYHQLFSPRCAYCAAPILDKVLTAMNQTWHPEHFFCSHCGEVFGAEGFHEKDKKPYCRKDFLAMFSPKCGGCNRPVLENYLSAMDTVWHPECFVCGDCFTSFSTGSFFELDGRPFCELHYHHRRGTLCHGCGQPITGRCISAMGYKFHPEHFVCAFCLTQLSKGIFREQNDKTYCQPCFNKLFPL
B5 was tested, and the Y2H matrices ([1]; validation of interaction with HCV protein CORE) was “+”, the “IMAP Y2H IMAP1 (number of IST)” value ([2]; HCV protein CORE as bait) was 1 and the “Interaction with viral protein” value [3] was “CORE”.

B6: KIF7 (protein, UniProt Q2M1P5 1-1343, looked up)
Kinesin-like protein KIF7: MGLEAQRLPGAEEAPVRVALRVRPLLPKELLHGHQSCLQVEPGLGRVTLGRDRHFGFHVVLAEDAGQEAVYQACVQPLLEAFFEGFNATVFAYGQTGSGKTYTMGEASVASLLEDEQGIVPRAMAEAFKLIDENDLLDCLVHVSYLEVYKEEFRDLLEVGTASRDIQLREDERGNVVLCGVKEVDVEGLDEVLSLLEMGNAARHTGATHLNHLSSRSHTVFTVTLEQRGRAPSRLPRPAPGQLLVSKFHFVDLAGSERVLKTGSTGERLKESIQINSSLLALGNVISALGDPQRRGSHIPYRDSKITRILKDSLGGNAKTVMIACVSPSSSDFDETLNTLNYASRAQNIRNRATVNWRPEAERPPEETASGARGPPRHRSETRIIHRGRRAPGPATASAAAAMRLGAECARYRACTDAAYSLLRELQAEPGLPGAAARKVRDWLCAVEGERSALSSASGPDSGIESASVEDQAAQGAGGRKEDEGAQQLLTLQNQVARLEEENRDFLAALEDAMEQYKLQSDRLREQQEEMVELRLRLELVRPGWGGPRLLNGLPPGSFVPRPHTAPLGGAHAHVLGMVPPACLPGDEVGSEQRGEQVTNGREAGAELLTEVNRLGSGSSAASEEEEEEEEPPRRTLHLRRNRISNCSQRAGARPGSLPERKGPELCLEELDAAIPGSRAVGGSKARVQARQVPPATASEWRLAQAQQKIRELAINIRMKEELIGELVRTGKAAQALNRQHSQRIRELEQEAEQVRAELSEGQRQLRELEGKELQDAGERSRLQEFRRRVAAAQSQVQVLKEKKQATERLVSLSAQSEKRLQELERNVQLMRQQQGQLQRRLREETEQKRRLEAEMSKRQHRVKELELKHEQQQKILKIKTEEIAAFQRKRRSGSNGSVVSLEQQQKIEEQKKWLDQEMEKVLQQRRALEELGEELHKREAILAKKEALMQEKTGLESKRLRSSQALNEDIVRVSSRLEHLEKELSEKSGQLRQGSAQSQQQIRGEIDSLRQEKDSLLKQRLEIDGKLRQGSLLSPEEERTLFQLDEAIEALDAAIEYKNEAITCRQRVLRASASLLSQCEMNLMAKLSYLSSSETRALLCKYFDKVVTLREEQHQQQIAFSELEMQLEEQQRLVYWLEVALERQRLEMDRQLTLQQKEHEQNMQLLLQQSRDHLGEGLADSRRQYEARIQALEKELGRYMWINQELKQKLGGVNAVGHSRGGEKRSLCSEGRQAPGNEDELHLAPELLWLSPLTEGAPRTREETRDLVHAPLPLTWKRSSLCGEEQGSPEELRQREAAEPLVGRVLPVGEAGLPWNFGPLSKPRRELRRASPGMIDVRKNPL
With B6 the Y2H matrices [1, 4] was “+”, the “IMAP Y2H IMAP1 (number of IST)” value ([2]; HCV protein NS3 as bait) was 1 and the “Interaction with viral protein” value [3] was “NS3”.

Reference: patent US20110091994A1, “Methods for Screening Compounds for Treating and/or Preventing an Hepatitis C Virus Infection” (priority 2008, published 2011)
